According to article PMC11602133:
Several values for one entry are separate records, joined by “and”; a condition that tells them apart may be missing. Equal entries are not always repeated.

Assays:
[1] = biological target: AGAMOUS (AG), in vitro produced (Arabidopsis) (UniProt P17839); assay: native gel or EMSA; in vitro produced proteins (wheat germ TnT) mixed with a DY-682 labelled ~100 bp DNA probe containing a CArG-box (SAUR10 probe); protein complexes read from the shifted bands on DNA; anti-FLAG antibody added for supershift where FUL-FLAG was used
[2] = biological target: SUPPRESSOR OF OVEREXPRESSION OF CONSTANS 1 (SOC1), in vitro produced (Arabidopsis) (UniProt O64645); assay: as above

UniProt O64645, sequence (O64645 whole entry): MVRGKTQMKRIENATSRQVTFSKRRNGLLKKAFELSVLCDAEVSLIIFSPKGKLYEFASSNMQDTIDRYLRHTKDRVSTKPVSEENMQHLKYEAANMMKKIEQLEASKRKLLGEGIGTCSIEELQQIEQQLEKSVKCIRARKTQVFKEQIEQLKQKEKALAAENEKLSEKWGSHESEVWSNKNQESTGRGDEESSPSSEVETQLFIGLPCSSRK
AGAMOUS (AG), in vitro produced, P17839 1-252 (natural protein; other documents disagree on this pair), sequence (P17839 whole entry): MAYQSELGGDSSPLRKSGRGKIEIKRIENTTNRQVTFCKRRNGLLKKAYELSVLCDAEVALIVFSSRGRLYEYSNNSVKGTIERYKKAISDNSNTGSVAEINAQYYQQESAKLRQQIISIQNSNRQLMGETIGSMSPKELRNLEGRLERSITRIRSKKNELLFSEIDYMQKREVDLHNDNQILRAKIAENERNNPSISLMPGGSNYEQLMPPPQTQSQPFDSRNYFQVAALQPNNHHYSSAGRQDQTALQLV

Substance	stoichiometry N [1]	stoichiometry N [2]
AGAMOUS (AG), in vitro produced, P17839 1-252 (natural protein; other documents disagree on this pair)	2	
SUPPRESSOR OF OVEREXPRESSION OF CONSTANS 1 (SOC1), in vitro produced (from UniProt O64645 1-214) (natural protein)		2 and 4
